The values below come from publication PMC9103804, “RNA and Protein Determinants Mediate Differential Binding of miRNAs by a Viral Suppressor of RNA Silencing Thus Modulating Antiviral Immune Responses in Plants” (International Journal of Molecular Sciences, 2022).

The target of series [1] is T1, CIRV p19 (Carnation Italian ringspot virus, UniProt Q66104 1-172).
T1 sequence: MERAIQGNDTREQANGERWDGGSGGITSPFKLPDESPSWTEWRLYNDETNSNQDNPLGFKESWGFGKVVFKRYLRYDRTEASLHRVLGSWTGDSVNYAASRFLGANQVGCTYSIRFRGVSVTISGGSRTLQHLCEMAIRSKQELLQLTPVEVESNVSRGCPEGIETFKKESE
As to the kind of experiment: EMSA. The conditions noted are these: protein: recombinant, tags: GST tag removed (PreScission, pGEX-6P-1), chain copies: 2, label: 5'-32P, 3' overhangs 2 nt.

Series [2] deals with the molecule itself. As to the kind of experiment: AUC; analytical ultracentrifugation at protein concentrations of 1.2-13 uM (CIRV p19); data not shown; procedure as in ref. 36.
The target in series [3] is T2, TAV 2b (Tomato aspermy virus, UniProt Q8UYT3 1-95).
T2 sequence: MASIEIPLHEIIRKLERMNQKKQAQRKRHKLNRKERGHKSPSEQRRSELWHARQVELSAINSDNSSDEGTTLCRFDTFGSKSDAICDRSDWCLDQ
As to the kind of experiment: competition; Kc vs labeled gf698. The conditions noted are these: protein: recombinant, tags: His-SUMO removed, chain copies: 2, label: 5'-32P, 3' overhangs 2 nt.

Series [4] addresses T2, TAV 2b. Description: EMSA. As to conditions: protein: recombinant; tags: His-SUMO removed; chain copies: 2; label: 5'-32P; 3' overhangs 2 nt. Background: In EMSA bound probe runs differently from free probe, usually more slowly.

B1: miR162-12gU/8*G (dsRNA)
RNA 1: UCGAUAAACCUUUGCAUCCAG
RNA 2: GGAUGCAGAGGUUCAUCGAUC
modifications: 5'-phosphate
Consider B1, for which the dissociation constant (Kd) in series [1] (G-U wobble) turned out to be 1.93 ± 0.13 nM.

B2: miR162-19gC/1*C (dsRNA)
RNA 1: UCGAUAAACCUCUGCAUCCAG
RNA 2: CGAUGCAGAGGUUCAUCGAUC
modifications: 5'-phosphate
Consider B2, for which, in series [1] (C/C mismatch), the Kd came out at 0.34 ± 0.15 nM.

B3: p19 protein of Carnation Italian ringspot virus (CIRV) (natural protein)
chain: MERAIQGNDTREQANGERWDGGSGGITSPFKLPDESPSWTEWRLYNDETNSNQDNPLGFKESWGFGKVVFKRYLRYDRTEASLHRVLGSWTGDSVNYAASRFLGANQVGCTYSIRFRGVSVTISGGSRTLQHLCEMAIRSKQELLQLTPVEVESNVSRGCPEGIETFKKESE
notes: p19 suppressor of RNA silencing, Carnation Italian ringspot virus (Tombusvirus); the p19 ORF cloned into pGEX-6P-1, GST removed with PreScission protease; Residues of the vector may be left at the N-terminus after PreScission cleavage (surmised); also called CIRV p19; p19 wt; source: E. coli BL21 (DE3) RIPL, purified (GSTrap, PreScission cleavage, Resource Q anion exchange)
Consider B3, for which, in series [2], the “stoichiometry N” value was found to be 2.

B4: AtmiR168a variant 1 (dsRNA)
RNA 1: UCGCUUGGUGCAGGUCGGGAA
RNA 2: CCCGCCCUGCAUCAACUGAAU
modifications: 5'-phosphate
Turning to B4, the Kd in series [1] (mismatches and G-U wobbles) came out at 3.13 ± 1.67 nM.

B5: miR162-17gU/3*C (dsRNA)
RNA 1: UCGAUAAACCUCUGCAUCCAG
RNA 2: GGCUGCAGAGGUUCAUCGAUC
modifications: 5'-phosphate
On to B5, for which the Kd in series [1] (C/U mismatch) came out at 0.3 ± 0.17 nM.

B6: miR162-12gC/8*C (dsRNA)
RNA 1: UCGAUAAACCUCUGCAUCCAG
RNA 2: GGAUGCACAGGUUCAUCGAUC
modifications: 5'-phosphate
With B6, in series [1] (C/C mismatch), the Kd came out at 0.28 ± 0.24 nM.

B7: miR162-13gU/7*C (dsRNA)
RNA 1: UCGAUAAACCUCUGCAUCCAG
RNA 2: GGAUGCCGAGGUUCAUCGAUC
modifications: 5'-phosphate
B7: the Kd in series [1] (C/U mismatch) is 1.01 ± 0.1 nM.

B8: miR162-10gC/10*A (dsRNA)
RNA 1: UCGAUAAACCUCUGCAUCCAG
RNA 2: GGAUGCAGAAGUUCAUCGAUC
modifications: 5'-phosphate
As to B8, in series [1] (A/C mismatch), the Kd came out at 0.35 ± 0.24 nM.

B9: AtmiR168a variant 3 (dsRNA)
RNA 1: UCGCUUGGUGCAGGUCGGGAA
RNA 2: CCCGCCCUGCACCAACUGAAU
modifications: 5'-phosphate
On to B9, for which the Kd in series [1] (mismatches) is 1 ± 0.24 nM. The inhibitory constant (Ki) in series [3] (mismatches) was 2.2 ± 0.4 nM.

B10: miR162-18gC/2*C (dsRNA)
RNA 1: UCGAUAAACCUCUGCAUCCAG
RNA 2: GCAUGCAGAGGUUCAUCGAUC
modifications: 5'-phosphate
With B10, in series [1] (C/C mismatch), the Kd was determined as 0.12 ± 0.08 nM.

B11: miR162-11gU/9*G (dsRNA)
RNA 1: UCGAUAAACCUCUGCAUCCAG
RNA 2: GGAUGCAGGGGUUCAUCGAUC
modifications: 5'-phosphate
Take B11: in series [1] (G-U wobble), the Kd was determined as 0.14 ± 0.12 nM.

B12: AtmiR162 (dsRNA)
RNA 1: UCGAUAAACCUCUGCAUCCAG
RNA 2: GGAGGCAGCGGUUCAUCGAUC
modifications: 5'-phosphate
Take B12: in series [1] (mismatches), the Kd is 0.06 ± 0.02 nM. In addition, in series [3] (mismatches), the Ki turned out to be 0.67 ± 0.09 nM.

B13: miR162-12gG/8*G (dsRNA)
RNA 1: UCGAUAAACCUGUGCAUCCAG
RNA 2: GGAUGCAGAGGUUCAUCGAUC
modifications: 5'-phosphate
With B13, in series [1] (G/G mismatch), the Kd is 0.07 ± 0.04 nM.

B14: miR162-14gG/6*A (dsRNA)
RNA 1: UCGAUAAACCUCUGCAUCCAG
RNA 2: GGAUGAAGAGGUUCAUCGAUC
modifications: 5'-phosphate
On to B14, for which, in series [1] (A/G mismatch), the equilibrium dissociation constant (Kd) stood at 0.86 ± 0.49 nM.

B15: AtmiR168a variant 6 (dsRNA)
RNA 1: UCGCUUGGUGCAGGUCGGGAA
RNA 2: CCCGACCUGCACCAAGCGAAU
modifications: 5'-phosphate
As for B15, the Kd in series [1] is 0.34 ± 0.16 nM. Besides, the Ki in series [3] was found to be 0.38 ± 0.05 nM.

B16: miR162-19gU/1*G (dsRNA)
RNA 1: UCGAUAAACCUCUGCAUCUAG
RNA 2: GGAUGCAGAGGUUCAUCGAUC
modifications: 5'-phosphate
As to B16, the Kd in series [1] (G-U wobble) stood at 0.15 ± 0.12 nM.

B17: AtmiR168a (dsRNA)
RNA 1: UCGCUUGGUGCAGGUCGGGAA
RNA 2: CCCGCCUUGCAUCAACUGAAU
modifications: 5'-phosphate
Regarding B17, the Kd in series [1] (mismatches and G-U wobbles) came to 2.49 ± 0.88 nM. Moreover, the inhibition constant Ki in series [3] (mismatches and G-U wobbles) worked out at 12.1 ± 0.7 nM.

B18: miR162-0 (dsRNA)
RNA 1: UCGAUAAACCUCUGCAUCCAG
RNA 2: GGAUGCAGAGGUUCAUCGAUC
modifications: 5'-phosphate
On to B18, for which the Kd in series [1] came to 0.15 ± 0.06 nM.

B19: miR162-18gU/2*G (dsRNA)
RNA 1: UCGAUAAACCUCUGCAUUCAG
RNA 2: GGAUGCAGAGGUUCAUCGAUC
modifications: 5'-phosphate
For the molecule B19, the Kd in series [1] (G-U wobble) was 0.13 ± 0.03 nM.

B20: miR162-14gU/6*G (dsRNA)
RNA 1: UCGAUAAACCUCUUCAUCCAG
RNA 2: GGAUGGAGAGGUUCAUCGAUC
modifications: 5'-phosphate
Turning to B20, the Kd in series [1] (G-U wobble) worked out at 0.45 ± 0.08 nM.

B21: miR162-11gU/9*C (dsRNA)
RNA 1: UCGAUAAACCUCUGCAUCCAG
RNA 2: GGAUGCAGCGGUUCAUCGAUC
modifications: 5'-phosphate
For B21, in series [1] (C/U mismatch), the Kd came out at 0.22 ± 0.03 nM.

B22: miR162-12gC/8*A (dsRNA)
RNA 1: UCGAUAAACCUCUGCAUCCAG
RNA 2: GGAUGCAAAGGUUCAUCGAUC
modifications: 5'-phosphate
With B22, the Kd in series [1] (A/C mismatch) is 0.16 ± 0.03 nM.

B23: miR162-16gU/4*G (dsRNA)
RNA 1: UCGAUAAACCUCUGCUUCCAG
RNA 2: GGAGGCAGAGGUUCAUCGAUC
modifications: 5'-phosphate
Take B23: in series [1] (G-U wobble), the dissociation constant Kd came out at 0.17 ± 0.05 nM.

B24: miR162-17gU/3*G (dsRNA)
RNA 1: UCGAUAAACCUCUGCAUCCAG
RNA 2: GGGUGCAGAGGUUCAUCGAUC
modifications: 5'-phosphate
As to B24, the Kd in series [1] (G-U wobble) was found to be 0.09 ± 0.04 nM.

B25: AtmiR168a variant 5 (dsRNA)
RNA 1: UCGCUUGGUGCAGGUCGGGAA
RNA 2: CCCGACUUGCACCAAGUGAAU
modifications: 5'-phosphate
Take B25: the Kd in series [1] (G-U wobbles) is 0.48 ± 0.17 nM. The inhibition constant (Ki) in series [3] (G-U wobbles) amounted to 1.4 ± 0.2 nM.

B26: miR162-16gA/4*G (dsRNA)
RNA 1: UCGAUAAACCUCUGCAUCCAG
RNA 2: GGAGGCAGAGGUUCAUCGAUC
modifications: 5'-phosphate
Take B26: in series [1] (G/A mismatch), the Kd was 0.38 ± 0.13 nM.

B27: miR162-13gU/7*G (dsRNA)
RNA 1: UCGAUAAACCUCUGCAUCCAG
RNA 2: GGAUGCGGAGGUUCAUCGAUC
modifications: 5'-phosphate
As for B27, the Kd in series [1] (G-U wobble) turned out to be 1.82 ± 0.38 nM.

B28: miR162-10gU/10*G (dsRNA)
RNA 1: UCGAUAAACUUCUGCAUCCAG
RNA 2: GGAUGCAGAGGUUCAUCGAUC
modifications: 5'-phosphate
For B28, the Kd in series [1] (G-U wobble) stood at 0.63 ± 0.21 nM.

B29: AtmiR168a variant 2 (dsRNA)
RNA 1: UCGCUUGGUGCAGGUCGGGAA
RNA 2: CCCGCCUUGCACCAACUGAAU
modifications: 5'-phosphate
For B29, the Kd in series [1] (mismatches and G-U wobbles) is 0.71 ± 0.28 nM. The Ki in series [3] (mismatches and G-U wobbles) came to 1.1 ± 0.2 nM.

B30: miR162-15gC/5*C (dsRNA)
RNA 1: UCGAUAAACCUCUGCAUCCAG
RNA 2: GGAUCCAGAGGUUCAUCGAUC
modifications: 5'-phosphate
As for B30, in series [1] (C/C mismatch), the Kd was found to be 0.23 ± 0.08 nM.

B31: AtmiR168a variant 4 (dsRNA)
RNA 1: UCGCUUGGUGCAGGUCGGGAA
RNA 2: CCCGACCUGCAUCAAAUGAAU
modifications: 5'-phosphate
As to B31, the Kd in series [1] (G-U wobbles) was found to be 2.65 ± 0.49 nM.

B32: miR162-12gG/8*U (dsRNA)
RNA 1: UCGAUAAACCUGUGCAUCCAG
RNA 2: GGAUGCAUAGGUUCAUCGAUC
modifications: 5'-phosphate
For B32, the Kd in series [1] (U-G wobble) was determined as 0.31 ± 0.08 nM.

B33: miR162-10gC/10*C (dsRNA)
RNA 1: UCGAUAAACCUCUGCAUCCAG
RNA 2: GGAUGCAGACGUUCAUCGAUC
modifications: 5'-phosphate
Consider B33, for which, in series [1] (C/C mismatch), the Kd came to 1.73 ± 0.57 nM.

B34: miR162-15gU/5*G (dsRNA)
RNA 1: UCGAUAAACCUCUGUAUCCAG
RNA 2: GGAUGCAGAGGUUCAUCGAUC
modifications: 5'-phosphate
As for B34, the Kd in series [1] (G-U wobble) was 0.1 ± 0.01 nM.

B35: gf698 siRNA (dsRNA)
RNA 1: UAGUUCAUCCAUGCCAUGUGU
RNA 2: ACAUGGCAUGGAUGAACUAUA
modifications: 5'-phosphate
In the case of B35, the dissociation constant (Kd) was found to be 0.06 ± 0.04 nM in series [1] and 0.68 ± 0.15 nM in series [4]. Moreover, in series [3], the inhibition constant (Ki) stood at 0.53 ± 0.08 nM.

B36: miR162-13gG/7*U (dsRNA)
RNA 1: UCGAUAAACCUCGGCAUCCAG
RNA 2: GGAUGCUGAGGUUCAUCGAUC
modifications: 5'-phosphate
Turning to B36, the Kd in series [1] (U-G wobble) turned out to be 1.53 ± 0.49 nM.

B37: miR162-14gG/6*U (dsRNA)
RNA 1: UCGAUAAACCUCUGCAUCCAG
RNA 2: GGAUGUAGAGGUUCAUCGAUC
modifications: 5'-phosphate
In the case of B37, in series [1] (U-G wobble), the Kd turned out to be 0.15 ± 0.09 nM.

What is called Kd is the constant that tells how readily two partners part at equilibrium. Usually stoichiometry N stands for the number of molecules, sites or subunits per partner or assembly. By Ki is commonly meant a measure of affinity in units of concentration, obtained from inhibition or displacement.
